Changes are numbered by the printed parent chain. Names and notes keep the numbering of the source.

One experiment has as its system p1-encoded leu2*. The experiment in a line: p1 leu2* fluctuation tests in AR-Y304 (p1 mutation rate reporter strain, mutual orthogonality). It counts as cell-based, S. cerevisiae. As to conditions: AR-Y304, noncognate polymerase in trans. An excerpt:
Strains for testing mutual orthogonality were generated by transforming a panel of CEN6/ARS4 vectors encoding TP-DNAP1 or TP-DNAP2 variants into two base strains, AR-Y304 and GA-Y021. AR-Y304 (Ravikumar et al., 2014, Nature Chemical Biology, 10:175-177) contains recombinant p1 encoding mKate2, URA3 and leu2* without disturbing the native TP-DNAP1 ORF. Similarly, GA-Y021 encodes recombinant p2 that replaces ORF1 with mKate2, URA3 and leu2* without disturbing the native TP-DNAP2 ORF.
To precisely measure p1 and p2 per-base substitution mutation rates, several modifications were made to the small-scale protocol. First, 36 replicates were performed for reconfirmation of candidate TP-DNAP2 mutators, and 48 replicates for genomic and mutual orthogonality experiments. Titers were also determined for each strain after spot plating by pooling the residual volume from 4 replicates and plating dilutions on YPD. The expected number of LEU2 functional mutants (m) was determined by the Ma-Sandri-Sarkar maximum likelihood estimator (as calculated by the FALCOR tool and corrected for partial plating (Foster, 2006, Methods Enzymol, 409:195-213; Sarkar et al., 1992, Genetica, 85:173-179; Hall et al., 2009, Bioinformatics, 25:1564-1565). The mean mKate2 fluorescence was determined from 50,000 event counts on Attune™ NxT Flow Cytometer and converted to p2 copy number by using a calibration curve. To determine per-base substitution rates, the corrected m was normalized to the average cell titer, the p2 copy number, and the target size for functional leu2* reversion (2.33 bp). 95% confidence intervals were similarly scaled.
To test whether the replication mechanisms of p1 and p2 are mutually orthogonal in vivo, p1 and p2 mutation rates were measured in the presence of a panel of TP-DNAP1 and TP-DNAP2 variants with varying mutation rates. Changes in p1 or p2 mutation rate induced by TP-DNAP variants would therefore signal a degree of cross-replication between TP-DNAP1/p1 and TP-DNAP2/p2, if any. A panel of six polymerases was introduced on CEN6/ARS4 vectors into two separate base strains, AR-Y304 (p1 mutation rate reporter strain) and GA-Y021 (p2 mutation rate reporter strain), encoding mKate2, URA3, and leu2* on either p1 or p2, respectively. Included in this panel were TP-DNAP1^WT and two error-prone TP-DNAP1 variants found in previous screens: TP-DNAP1^1777K, L900S and TP-DNAP1^L477V, L640Y, I777K, W814N. Also included were TP-DNAP2^WT and the error-prone TP-DNAP2^S370Q and TP-DNAP2^Y424Q variants found in this work. In AR-Y304 and GA-Y021, both p1 and p2 still encode their native wt TP-DNAP's. Any contribution to replication by a third TP-DNAP encoded in trans is monitored by detecting changes in linear plasmid mutation rate. Importantly, these experiments afford each DNAP an opportunity to replicate its native plasmid and lose its attached TP, becoming “spent” and perhaps more likely to replicate its noncognate linear plasmid through DNAP exchange (Klassen and Meinhardt, 2007, Linear Protein-Primed Replicating Plasmids in Eukaryotic Microbes, in Microbial Linear Plasmids, pp 1 87-226. Springer, Berlin, Heidelberg). The presence of TP-DNAP1^WT or TP-DNAP2^WT in trans had no effect on their noncognate linear plasmids' mutation rate. […] Likewise, p1 mutation rate was unaltered in the presence of mutagenic TP-DNAP2^S370Q and TP-DNAP2^Y424Q, which increased p2 mutation rate by 29- and 16-fold, respectively (FIG. 9). Thus, TP-DNAP1 replicates p1 with at least 870-fold specificity over p2, while TP-DNAP2 targets p2 with at least 29-fold specificity over p1. The level of mutual orthogonality measured here is limited by the error-rates of DNAPs used, especially that of TP-DNAP2 variants.

The subject of the next experiment is p2-delORF2-URA3. The experiment in a line: Complementation of native TP-DNAP2 deletion (p2-delORF2-URA3 replication in trans). The format is cell-based, S. cerevisiae. An excerpt:
First, TP-DNAP2, which is ORF2 of p2, was deleted by homologous recombination of a synthetic cassette encoding URA3. Since p2 is a multi-copy plasmid, the resulting strain (GA-Y069) harbored a mixture of the parental wt p2 and the recombinant p2 with ORF2 deleted (p2-delORF2-URA3), along with unaltered p1. In this strain, both the wt p2 and recombinant p2-delORF2-URA3 plasmids rely on TP-DNAP2 encoded on the parental wt p2 plasmid for replication. Thus, loss of wt p2 should disable replication of p2-delORF2-URA3. […] Next, the same experiment was repeated in the presence of a codon-optimized TP-DNAP2 expressed in trans from a standard yeast CEN6/ARS4 nuclear plasmid (pGA55-reTP-DNAP2). […] Therefore, p2-derived plasmids can be replicated by TP-DNAP2 encoded on a standard nuclear plasmid, simplifying the characterization of p2 replication by error-prone TP-DNAP2 variants.

B1: S370Q: TP-DNAP2 variant (protein, listed as Kluyveromyces lactis)
chain: MNDELAFLNSQIDDYSDDIEFLRTEVFRINRYSKSIYSLMKNSSKEAIKETIEFNKYGQEIHSKIKEKEISLIEAIKLMEKKYKYLRSLNKTKDKSKKKKIHTKDIETLKTIYKTKADFDIRNFKNAETFTYENYSLLIPSEKELIDLIPEIEEDYSYYFYVSLTITGPTIFGGVTRKVPIIDTYGDINKDFYNKIKENITKVLDRVPFYEEKESEIICKKVLITLTVNKWESIDKWYKNVKSKSKKFKDFTLFLASDTSKNCVQQCVEYLGGKWNTNYSLEKMIPQQKIVTYIPLLMDIQYVQSMEDLISDFDEPNTDCKNIARLLKWNGHMGVITKIDKDVKINRIQRKRIIDVENKEVKEVFFDIEQFSDETKHQIPYLICWSYLGELYYRTGKNCIKEFVEEILSYNVDIILYAWYGSGYDYQHVLPYMKSKCIKDKYIIKNNMITYGELYYENAIIYLKDPYLFILTSLDKASKAFNVINKGEFPHSIIHSWEDLNKILPNWVKIQKRMIEYKDDNKLNIYYKNIEIFENDRNYNTILENAIEYCKVDVLAMEKVWIKFKKLLEKNLNITVSVKTFTLSQLSMKIMESKLPKYVKLYVPTLEEYSKIRNAIYGGRVISKNGIYEENIVYADVVSLYPSAMKLLKHSYGKPKLVDYIDFEKHGIYRVTLLNKHDQEPKNYLNFVPRRINRKLTWEWFKIHEGWYHTYDLIIAKSEGFDIYCHEGFEYPEKDYIFNDFIDTLYSMKETHTACSCEEQPCPIRMVAKIALNGGGYGKFVQKPIDKEIYIVKRDVVAGECDKLQENENGEICIGKRLVKRPLFYNLDSENYDKMIIEKEDEPIYSTQCGISILSASRYRLYKLCKQFENIDIIYSDTDSIFVKQKSVDWELFKSKCGSELGQLDSTIDDTKNAIISKMYIGGAKMYAFEYLNNKNKLITKLHCKGVPNYMLSLNQFKYLMESPDNTIAYKFEIIRRKLVNVITKDLIKDIKQT
As to B1, the “change in p1 mutation rate by TP-DNAP2” value with p1-encoded leu2* is “unaltered”. Also, in the experiment with p2-delORF2-URA3, the “ability to complement deletion of native TP-DNAP2 and sustain p2-delORF2-URA3 replication” value was “not active enough to fully complement a deletion of the native TP-DNAP2”.

B2: Y424Q: TP-DNAP2 variant (protein, listed as Kluyveromyces lactis)
chain: B1 chain with Q370S, Y424Q
As to B2, in the experiment with p1-encoded leu2*, the “change in p1 mutation rate by TP-DNAP2” value is reported as “unaltered”. The “ability to complement deletion of native TP-DNAP2 and sustain p2-delORF2-URA3 replication” value in the experiment with p2-delORF2-URA3 is given as “not active enough to fully complement a deletion of the native TP-DNAP2”.

The record behind these values is patent publication US20230242902A1, “A HIGHLY ERROR-PRONE […] R[…] FOR TARGETED CONTINUOUS EVOLUTION IN VIVO” (The Regents of the University of California, priority 2017, published 2023).
